Results on 31 sequences are retold here after a protein production outcome set (Wang et al. 2014).

The data set is described as follows: label from the status in PepcDB records.
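Further: failed if final PepcDB status was selected cloned or expressed and not failed if soluble or beyond.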

Regarding “DKLDLSPIDYYGSGSYWKTEAQATAYIDGIHKHLRDAAWQHTITFGELRGGRFITGASSDGMGVSNGDIILQNFDETHTGVSKFGDLFGRITNLNLFIARVTDATYLSDEMKNFYLGEVYGLRAFYYFDLYRIYGGVPLRLTADVVEGVIDPNKLYMARSTPKEVMTQIKSDLNKSMEYFGNMNDFDPYKRGKKVYWSKAATECLMGEVYLWTSKVTTGDDVANPADLTIAKTHLESVLNNYNLKMLDDFSQVFNAKNKANDEIIFAIRFLEGEATNSNGTFTYNVGTGSTKNRYQANGEVFGDALDIQNTGNQTYEYNKAVYQNFDDADTRKEATFIASYNKDGKTGELSLYGTHVRKNIGYVNAQGARVYCGDYIFYRLPWVYLTLAEIANMEGDNAAVAKYINLVRKRAYGNAWDETLYAYPETADFTTNELAILHEKDKEFIQEGQRWWDLRRMTLTKGGTPLVFCKEGSLLGDAPILNKSTEAHKLLWPIEKTMLNKDPALEQTPGYK”, the protein production entry was “not failed”.
With “DMKQLAEDVKLQLYKLLEIPDPDKNWATLAQKLGLGILNNAFRLSPAPSKTLMDNYEVSGGTVRELVEALRQMGYTEAIEVIQAASS”, the protein production entry was “not failed”.
For “DNDAEALLWSELRDRRLNGFKFVRQVAVGPYFADFACRDERLVVEVDGSQHQIGSGDARRDKFMVMNGWSVLRFWNTDIFNDRAAVLETIVAVLEKRLVREVRSAD”, the protein production result is reported as “failed”.
The entry for “DNYRTTGIATIEVFLPPRLKKDRKNLLETRLHITGRELRSKIAETFGLQENYIKIVINKKQLQLGKTLEEQGVAHNVKAMVLELKQS” is “not failed”; for “DPSVFSLPDSKLPGDKEFVPWQQDLDDSVKPTQQARPTVIRWSEGGKEVFISGSFNNWSTKIPLIKSHNDFVAILDLPEGEHQYKFFVDGQWVHDPSEPVVTSQLGTINNLIHVKKSDFEVFDALKLDSMESSETSCRV” it is “failed”.
The entry for “DQEPPLYVNENDIFTSPTRIEATLNGLYAAIKNTGTKSLMGGKSYLVFDNRGDDVINISNNLVTLFNTYNMNVGITDAENADTWTYAYLAINKVNTFLQSLEGAREVAGENYDRYVQEAKFVRALAYYYLNNLYPTPYSVNPDAKSVPLRLTAEAGTENNNMPRSTVKQIYEHILSDLENISALDTEVNTYTGVTHATQAAANMLKMRVYMAMNEWDKAITAGELVTGYSLPEDVTLIYKAPYFSQESIFSLPMADTNIPNTQQSLAEYYYDGKIMLIDTKSGIMSKPDYSLATDKRIIAFKGEKDLLMKFTDAKTKLQWVPIFRYAETLLDLAECYANKAGGEATAKSLLKQVRGRSVDAATDPLNIDNLSGDALKEAIYNEKRLEFIGEGIRGIDIMRRGEHFIKVGENETINVGPSDEKYTWPIPQVELLLNKDINK” is “not failed”; for “DQKGDKVVIRGNNYVSIATGLNWYLKYYAGIHLSWNGMQAKLPAVLPPVTKKERRETTLPYRYDLNYCTFSYSMAFWDWNRWEKEIDWMALHGINIPLAVTGAEAVWHNVLDKLGYTKTEINEFISGPGFFAWWLMNNLEGWGGPNPDSWYTRQIALQKKILKRMREYGIEPVLPGYCGMVPHNAKEKLGLNVSDPGTWCGYRRPAFLQPSDPRFEEISSLYYKELEKLYGKANFYSMDPFHEGGNTAGVDLDAAGKAVMKAMKKANPKAVWVAQAWQANPRPKMIENLKAGDLLILDLTSECRPQWGDSTSEWYRKNGYGQHDWIYCMLLNYGGNVGLHGKMDNVIDNFYLAKADPHASATLKGVGMTPEGIENNPVMYELVMELPWRPDRFTKEEWLKEYVKARYGVDDPVVQAAWTNLANSIYNSPKNLTQQGTHESVFCARPAEDVYQVSSWSEMKDYYRPQEVIEAARLMVSVADRFKGNNNFEYDLVDIVRQALAEKGRLMQKAVTAAYRAGDKQLFALASGKFLDLILLQDKLLGTRPEFRVGKWIEEARALGDTPEEKELYEWNARVQITTWGNRNAADYGGLRDYAHKEWNGLLKDFYYMRWKLYFDFLSQRIEGKTPAEIDFYAIEEPWTKAANPYSAEAEGDCIEVAKQVMQAVE” it is “failed”.
Turning to “DRDQTLALMAQMTIPTLATWCAVYTIADQASEPYLSYVLHEDEDRIDGVKALLSKIPPPEPIPTPGARVWSAPAQAAHEAALRTSMRSLGLGEPATVSSGIGTTLATASAVGGETVVLPLVARNRVIGMLTLGKPSDEHFRQEILELAEDLSRRAALALDNARLYSERTAISQSLQRSLLPPDLPHI”, the protein production result is given as “failed”.
The entry for “DRIYLVAPEDIYLVSVEERQLSIFVDQQVYKMTGTLNSIEQKLPATLFIKTHRSFILNRTKIQEIQPWFNNTLQVILTNGSKVPVSRSYVKEFKEKLGLS” is “failed”.
On to “DRLRAFNHRLQNTPESVKVLRDWNMELDKNVTEVQGRIIGQQNIVFHNGKVPAGENADWQRHFRDQRMLTTPSDGLDRWAVIAPQRNSHELRTLLDSLYR”, for which the protein production result is on record as “failed”.
On to “DRRYKWQTVVSEQLVGAGFNEILNNSLTAGSYYEGLKTHPREMAVELMNPLSQELNCMRQTLLFGGLETLSHNLRRKHLSLYLFEWGKCYRFHAAKRTDETPLSAYAEDDRLGIWICGQRVHNSWAHPEEPTSVFELKAVVEQVLCRVGIETGAYTLETADNDLYASAMEVKTRSGKLLGTFGTVSTEQIKRFDIEQPVYFAELLWDALMSESARYKLEARD”, for which the protein production result was “failed”.
Regarding “DRTTYYSILGLTSNATSSEVHKSYLKLARLLHPDKTKSDKSEELFKAVVHAHSILTDEDQKLRYDRDLKIKGLHTYQPKK”, the protein production result was “failed”.
As to “DSVDLCIMEILKDILDLFHGGRVYIFEYDEYYRYQDCTYEVVAEGVLPEIDSLQRIPTDSLPWWRQQTLSGKPVILDSLDQLPKHAKAEYAILSRQNIKSLMITPLIAGEHVWGYMGIDLVKNYRNWNNEDFQWLSSLANIISICIELRKAKDEAVRERSFLRNLFRFMPMGYIRMTMVRDAAGLP”, the protein production result is recorded as “failed”.
Turning to “DYIEMKVPAQPEYVGIIRLTLSGVASRMGYTYDEIEDLKIAVSEACTNAVQHAYKEDKNGEVSIRFGVFEDRLEVIVADEGDSFDFDQKQQDLGPYTPSHTVDQLSEGGLGLYLMETLMDEVRVQNHSGVTVAMTKYLNGERVDHDTT”, the protein production entry is reported as “failed”.
Take “DYPIMIICPGGGFTYHSGREEAPIATRMMAAGMHTVVLNYQLIVGDQSVYPWALQQLGATIDWITTQASAHHVDCQRIILAGFSAGGHVVATYNGVATQPELRTRYHLDHYQGQHAAIILGYPVIDLTAGFPTTSAARNQITTDARLWAAQRLVTPASKPAFVWQTATDESVPPINSLKYVQAMLQHQVATAYHLFGSGIHGLALANHVTQKPGKDKYLNDQAAIWPQLALRWLQE”: the protein production result was “failed”.
With “EAGGIGIWEWELKPNIFSWDKRMFELYEIPPHIKPNWQVWYECVLPEDRQHAEKVIRDSLQSRSPFKLEFRIAVKDGIRHIRALANRVLNKEGEVERLLGINMDMT”, the protein production result is “failed”.
In the case of “EAKAKANTTRSLQALINLQPQQATVITEQGDQQITVEQITLGMKLRIKPGEKVPVDGVVIQGESYIDESMLTGEPVPVLKAQEAQVSAGTLNTDGALIIEATGIGANTMLARIIRMVRTAQSSKPAIAKLADQ”, the protein production result is given as “failed”.
With “EAQRELTEMEARTRLTTEMMPAHIAHVGRDLRYTYSNRRLSQVIPGRPSDILGLTGREALGEGLFARIRPCLLRALEGEASVLEFSDEDSGSRIRAAFTPDRTGDGPINGVYILSMDVT”, the protein production entry is given as “failed”.
With “EASSKSYRELIIEGLTALKERKGSSRPALKKFIKENYPIVGSASNFDLYFNNAIKKGVEAGDFEQPKGPAGAVKLAKK”, the protein production result is “not failed”.
In the case of “EDATPETVEYRQLSAADLLADTHLLREVFGLLVLAHYRTEPSDLARLLDAPNLTVRALTHEGHVVAVALLAQEGGLSASTRATMYEGGRVRGNMLPDVLSTQLRDEAAGVPVGQRVLRIATHAAVRSRGLGSKLLSEIRAEFADHVDWVGVSYGATPELVRFWADNGYNTVHLATSRNATSGEYSVVMLDP”, the protein production result is recorded as “failed”.
Then “EDFVDPWTVQTSSAKGIDYDKLIVRFGSSKIDKELINRIERATGQRPHHFLRRGIFFSHRDMNQVLDAYENKKPFYLYTGRGPSSEAMHVGHLIPFIFTKWLQDVFNVPLVIQMTDDEKYLWKDLTLDQAYSYAVENAKDIIACGFDINKTFIFSDLDYMGMSSGFYKNVVKIQKHVTFNQVKGIFGFTDSDCIGKISFPAIQAAPSFSNSFPQIFRDRTDIQCLIPCAIDQDPYFRMTRDVAPRIGYPKPALLHSTFFPALQGAQTKMSASDPNSSIFLTDTAKQIKTKVNKHAFSGGRDTIEEHRQFGGNCDVDVSFMYLTFFLEDDDKLEQIRKDYTSGAMLTGELKKALIEVLQPLIAEHQARRKEVTDEIVKEFMTPRKLSFDFQ”, with “not failed”; and “EEIRKIPMFSSYNPGEPNKVLYLKNLSPRVTERDLVSLFARFQEKKGPPIQFRMMTGRMRGQAFITFPNKEIAWQALHLVNGYKLYGKILVIEFGKNKKQRS”, with “not failed”; and “EGALPKASEATVCANNSKVSSPGEKVVLWTREADRVILTMCQEQGAQPHTFSVISQQLGNKTPVEVSHRFRELMQLFHTACE”, with “not failed”.
Turning to “EGQPLTRLKHMEPRLMAELGGLCAKLDKALAHFDHPGLARTLQWDPQHAGALIDHLLPVLQDGGQRARIEHATRQANEHLMPLVDQLPSQAVHLDITDDNTVWARDAQRQWQLQGVIDFGDLLRTWRIADLSVTCAALLHHAEGDPLRILPAVQAYQALNPLTEAELRALWPLVLNRAAVLVLSSEQQLTVDPGNQYTRDNIAHEWEIFDTATAVPFALMEAAILQAAGLQPAAP”, the protein production entry is “failed”.
For the sequence “EGWMDEPDWRRFITAYHQEHAGITEQLFSLADTSPYAWLAEPLRAVEGTVLDLACGSAPTRQELPDADWVGVDLSAAELAEAARQGRGPLLRAAADALPAASASVGAVCAAMCLPVVTPLPQTLGEIRRVLRPGGVLAALVPSQSGLSPSGMLGWVRVMAALRAVRQPWPNPQARDGLPALLRTAGFRVRRDERHVFTLAIDSAGAAALLADALYLPGLTTHRAQAAKR”, the protein production entry is “failed”.
With “EGYEQDFAVLTAEITSKIARVPRLPPDEKKQMVANVEKQLEEARELLEQMDLEVREIPPQSRGMYSNRMRSYKQEMGKLETDFKRSRIA”, the protein production entry was “not failed”.
Take “EHAKQASSYIPLDRLSISYCRSSGPGGQNVNKVNSKAEVRFHLASADWIEEPVRQKIALTHKNKINKAGELVLTSESSRYQFRNLAECLQKIRDMIAEA”: the protein production result is “not failed”.
“EHNYHPNAVAAGLRAGRTRSIGLVIPDLENTSYTRIANYLERQARQRGYQLLIACSEDQPDNEMRCIEHLLQRQVDAIIVSTSLPPEHPFYQRWANDPFPIVALDRALDREHFTSVVGADQDDAEMLAEELRKFPAETVLYLGALPELSVSFLREQGFRTAWKDDPREVHFLYANSYEREAAAQLFEKWLETHPMPQALFTTSFALLQGVMDVTLRRDGKLPSDLAIATFGDNELLDFLQCPVLAVAQRHRDVAERVLEIVLASLDEPRKPKPGLTRIKRNLYRRGVLSRS”: the protein production result is recorded as “not failed”.
As to “EIAQVTSAYVASGSEQLSLAPGQLILILKKNTSGWWQGELQARGKKRQKGWFPASHVKLLGPSSERA”, the protein production result is “not failed”.
The entry for “EIDYTAYPWFAGNMERQQTDNLLKSHASGTYLIRERPAEAERFAISIKFNDEVKHIKVVEKDNWIHITEAKKFDSLLELVEYYQCHSLKESFKQLDTTLKYPYK” is “failed”; for “EKIGDRTYRVVSRLSLEDLKDHIEEELDLEIEFGDEIEDQVDTVGGLIAFELGRVPLPGATVETCGLKLTAEGAKNRRGRLRMHSAVVEVGE” it is “not failed”.
